How the values were obtained:
[1] = biological target: T1, human EGFRvIII overexpressed on cells (F98npEGFRvIII, U87MG-EGFRvIII, FaDu-EGFRvIII) (human, UniProt P00533 25-1210); assay: cell-based or functional assay
[2] = biological target: T1, human EGFRvIII overexpressed on cells …; assay: cell-based or functional assay; remark: listed apart in the source
[3] = biological target: T2, human EGFRvIII, purified recombinant protein (Acro Biosystems Cat #EGI-H52H4) (human, UniProt P00533 25-645); assay: SPR (Carterra LSA), antibody captured on anti-human IgG, antigen injected, 1:1 Langmuir fit;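 note: EGFRvIII injected at five concentrations, fivefold serial dilution starting 500 nM, 5 min association then 15 min dissociation, double-referenced against interspot and buffer blank signals, global kinetic fit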
T2 construct: Bought protein; the deletion must be applied; also called truncated human EGFRvIII; huEGFRvIII

[4] = biological target: T1, human EGFRvIII overexpressed on cells …; assay: flow cytometry, U87MG-EGFRvIII cells, n=3
[5] = biological target: T2, human EGFRvIII, purified recombinant …; assay: ELISA, antigen coated at 1 ug/mL, anti-human IgG-HRP, n=3
[6] = biological target: T3, human EGFR, purified recombinant protein (Acro Biosystems Cat #EGR-H5222) (human, UniProt P00533 25-645); assay: SPR (Carterra LSA), antibody captured on anti-human IgG, EGFR1 injected in a 5-fold series from 500 nM
T3 construct: Bought protein; also called EGFR1; full length human EGFR1

[7] = biological target: T4, wild type human EGFR1 on cells (F98 EGFR1; wild type U87MG; wild type FaDu) (human, UniProt P00533 25-1210); assay: flow cytometry on wild type U87MG cells, anti-human IgG Fc Alexa Fluor 647, MFI
T4 construct: whole, on cells

[8] = biological target: T1, human EGFRvIII overexpressed on cells …; assay: flow cytometry, FaDu-EGFRvIII cells, n=3
[9] = biological target: T3, human EGFR, purified recombinant …; assay: ELISA, plate coated with human EGFR1, anti-human IgG-HRP, OD450

| ADCC EC50 (nM), FaDu-EGFRvIII cells with PBMC [1] | ADCC EC50 (nM), U87MG-EGFRvIII cells with PBMC [2] | Kd [3] | koff [3] | kon [3] | EC50 [4] | EC50 [5] | binding result [6] | binding result [7] | EC50 [8] | binding result [9] | Binder |
| --- | --- | --- | --- | --- | --- | --- | --- | --- | --- | --- | --- |
| 0.0051 nM | 0.0047 nM | 57 nM | 0.0024 s⁻¹ | 42000 M⁻¹ s⁻¹ | 6.05 nM | 0.156 nM | no binding | no binding | 5.27 nM |  | SD-127612-afuc (antibody, V domains shown, afucosylated (FUT8 knock-out CHO)) VH: QVQLVQSGAEVKKPGASVKVSCKASGYTFTSYDINWVRQAPGQRLEWMGWIFPGDGTSKYNEKFKGRVTITRDTSASTAYMELSSLRSEDTAVYYCARRLGSHWGQGTLVTVSS VL: DIVLTQSPDSLAVSPGERATISCKASQSVDSDGDSYMNWYQQKPGQPPKLLIYGASNLESGVPDRFSGSGSGTDFTLTISRVEAEDVAVYYCQQSHEYPFTFGGGTKLEIK |
| 0.0033 nM | 0.0066 nM | 33 nM | 0.0017 s⁻¹ | 51000 M⁻¹ s⁻¹ | 4.33 nM | 0.129 nM |  | no binding | 3.86 nM | no binding | SD-649072-afuc (antibody, V domains shown, afucosylated (FUT8 knock-out CHO)) VH: QVQLVQSGAEVKKPGASVKVSCKASGYTFTSYDINWVRQAPGQRLEWMGWIFPGDGTSKYNEKFKGRVTITRDTSASTAYMELSSLRSEDTAVYYCARRLGTVWGQGTLVTVSS VL: DIVLTQSPASLAVSPGQRATITCKASQSVDSDGDSYMNWYQQKPGQPPKLLIYGASNLESGVPARFSGSGSGTDFTLTINPVEANDTANYYCQQSHEYPFTFGQGTKLEIK |

Source: patent US20240117056A1 (IBIO, published 2024)
